Reference: patent publication US20210069342A1 (LEGOCHEM BIOSCIENCES, published 2021)

How the values were obtained:
[1] = molecular target: T1, recombinant human ROR1-His (Sino Biological, 13968-H08H) (human, UniProt Q01973 30-406); test: BLI (Octet), ROR1-His on Anti-Penta-His or AR2G biosensor, IgG 30 to 0.021 nM, 1:1 fit
T1 construct: extracellular domain; Bought protein; also called ROR1-HIS protein; not shown: His tag
Procedure: A 96-well black microplate (greiner bio one) was mounted on a biosensor tray case, and 200 10×KB or DW was added to each of 8 wells. Then Anti Penta His biosensors or 8 AR2G biosensors (ForteBio, USA) were inserted to hydrate for 10 minutes. 600 of the assay samples were diluted 2-fold or 3-fold to the appropriate assay concentrations, using 1×KB or 10×KB to 30 to 0.021 nM. To immobilize the antigen, recombinant human ROR1-His (Sino Biological, 13968-H08H) was diluted to 1 /ML with 10×KB or Sodium Acetate pH5 buffer. Immobilization was fixed at a threshold of 0.3 nm in the loading step. The association assay was carried out for 3 to 10 minutes, and the dissociation assay was carried out for 20 minutes. According to the Octet program template, the buffer was placed in a new 96-well black microplate according to order. As Baseline1, 200 10×KB or DW was placed. Then 200 each of 1 /mL of the antigen to be loaded, the ROR1-HIS protein, was added. As Baseline2, 200 10×KB or 1×KB was placed. Then to each well 30 to 0.021 nM of the diluted antibody and 200 each of 10×KB buffer or 1×KB corresponding to a reference blank was added. The temperature of the test plate was fixed at 30° C. After all of the samples were introduced, the equipment was started, and after the assay was completed, results were uploaded to the Octet Analysis 90 software, with KD values analyzed through 1:1 fitting. By obtaining KD values through the Octet assay method, it was confirmed that the anti-ROR1 antibody had strong binding potential to ROR1 antigen.

[2] = molecular target: T2, human ROR1 expressed on the cell surface (human, UniProt Q01973 30-937); test: flow cytometry on A549 cells (lung cancer), C2E3 IgG, FITC anti-human Fc detection
T2 construct: whole, on cells; also called cell surface-expressed ROR1 antigen; ROR1 on JeKo-1, Mino, CHO-human ROR1, MC38-human ROR1 and other cancer cell lines
T2 sequence (Q01973 30-937): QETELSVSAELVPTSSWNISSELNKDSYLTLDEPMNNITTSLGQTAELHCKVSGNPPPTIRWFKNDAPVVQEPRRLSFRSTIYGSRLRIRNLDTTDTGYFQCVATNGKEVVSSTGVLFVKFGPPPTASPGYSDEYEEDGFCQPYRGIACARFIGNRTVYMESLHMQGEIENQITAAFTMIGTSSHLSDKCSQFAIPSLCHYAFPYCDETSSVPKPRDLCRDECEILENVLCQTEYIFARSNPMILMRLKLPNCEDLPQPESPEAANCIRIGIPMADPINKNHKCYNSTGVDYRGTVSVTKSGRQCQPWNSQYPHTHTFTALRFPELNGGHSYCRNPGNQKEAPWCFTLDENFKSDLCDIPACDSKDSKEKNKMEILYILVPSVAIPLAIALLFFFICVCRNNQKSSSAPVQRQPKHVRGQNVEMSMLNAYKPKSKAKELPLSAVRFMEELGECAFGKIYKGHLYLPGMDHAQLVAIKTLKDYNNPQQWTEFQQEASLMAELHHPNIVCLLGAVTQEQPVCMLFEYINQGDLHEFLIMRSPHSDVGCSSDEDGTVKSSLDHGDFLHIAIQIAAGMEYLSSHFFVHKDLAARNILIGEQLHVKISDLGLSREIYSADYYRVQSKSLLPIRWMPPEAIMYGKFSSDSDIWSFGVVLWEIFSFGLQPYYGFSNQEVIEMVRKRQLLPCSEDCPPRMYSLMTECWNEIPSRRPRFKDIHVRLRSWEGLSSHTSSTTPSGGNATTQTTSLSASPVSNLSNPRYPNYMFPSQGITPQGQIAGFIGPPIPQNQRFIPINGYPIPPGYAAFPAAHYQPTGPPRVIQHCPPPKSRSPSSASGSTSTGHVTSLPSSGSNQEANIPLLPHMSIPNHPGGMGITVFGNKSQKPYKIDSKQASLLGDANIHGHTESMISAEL
Procedure: (§1) FACS analysis (FACSCalibur, BD Biosciences) was used to analyze the binding of the anti-ROR1 antibody of the present invention to ROR1 in the above cell lines.
(§2) Specifically, the respective cell lines were dissociated and washed in PBS, then the numbers of cells were counted and adjusted to 2×10⁵ cells/200 PBS. Then, they were treated with 10 /mL of the antibody of clone name C2E3 of the ROR1 monoclonal antibodies prepared in Embodiment 3, and reacted for 1 hour at 4° C. After the reaction, the cells were washed in PBS, then FITC-marked constant region (Fc) specific antibody (Goat anti-human IgG FITC conjugate, Fc specific, Sigma, F9512, concentration 20 mg/ml) was suspended in 2 /1×10⁵ cells/200 PBS and reacted for 1 hour at 4° C. After reacting, the cells were washed with PBS and analyzed with the FACSCalibur equipment. The negative control was only treated with FITC-marked constant region (Fc) specific antibody. To compare the degree of ROR1 expression among the respective cancer cell lines, the quotient of dividing the shifted readings for the experimental group treated with the ROR1 monoclonal antibody (C2E3) of the present invention by the shifted readings for the control group (MFI Ratio: MFI of anti-ROR1/MFI or 2nd Ab) is indicated.

[3] = molecular target: T2, human ROR1 expressed on the cell surface; test: flow cytometry on HT29 cells (colon cancer), C2E3 IgG, FITC anti-human Fc detection
Procedure: as §1, §2

[4] = molecular target: T2, human ROR1 expressed on the cell surface; test: flow cytometry on MKN-28 cells (gastric cancer), C2E3 IgG, FITC anti-human Fc detection
Procedure: as §1, §2

T1 sequence (Q01973 30-406): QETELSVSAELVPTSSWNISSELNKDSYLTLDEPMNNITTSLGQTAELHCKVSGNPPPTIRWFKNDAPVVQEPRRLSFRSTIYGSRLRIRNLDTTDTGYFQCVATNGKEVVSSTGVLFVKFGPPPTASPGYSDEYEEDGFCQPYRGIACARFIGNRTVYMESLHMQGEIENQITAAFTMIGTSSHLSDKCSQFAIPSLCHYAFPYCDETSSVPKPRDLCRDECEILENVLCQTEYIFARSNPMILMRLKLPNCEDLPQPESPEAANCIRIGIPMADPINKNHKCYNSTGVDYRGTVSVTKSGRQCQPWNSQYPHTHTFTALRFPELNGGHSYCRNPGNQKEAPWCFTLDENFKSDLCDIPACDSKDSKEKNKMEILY

kon [1]: 5.46e+06 M⁻¹ s⁻¹
Mean Fold Ratio (MFI of anti-ROR1 / MFI of 2nd Ab) [2]: 6
Mean Fold Ratio (MFI of anti-ROR1 / MFI of 2nd Ab) [3]: 3.9
Mean Fold Ratio (MFI of anti-ROR1 / MFI of 2nd Ab) [4]: 4.9
B1: anti-ROR1 IgG antibody C2E3 (antibody, V domains shown)
VH: EVQLLESGGGLVQPGGSLRLSCAASGFTFSNYAMSWVRQAPGKGLEWVSSISHNSGSTYYADSVKGRFTISRDNSKNTLYLQMNSLRAEDTAVYYCAKFISARKSLGRSYSNGMDVWGQGTLVTVSS
VL: QSVLTQPPSASGTPGQRVTISCTGSSSNIGSNDVTWYQQLPGTAPKLLIYADSKRPSGVPDRFSGSKSGTSASLAISGLRSEDEADYYCGTWDYSLSGYVFGGGTKLTVLG
notes: Full IgG form (human IgG1 constant region, lambda light chain), expressed in CHO-S cells
